Molecular target: the molecule itself
Experiment: SEC

B1: Human E-Syt2 (residues 163-634), fragment comprising the SMP, C2A and C2B domains (domain or fragment, UniProt A0FGR8 191-662, looked up)
chain: DTERAEWLNKTVKHMWPFICQFIEKLFRETIEPAVRGANTHLSTFSFTKVDVGQQPLRINGVKVYTENVDKRQIILDLQISFVGNCEIDLEIKRYFCRAGVKSIQIHGTMRVILEPLIGDMPLVGALSIFFLRKPLLEINWTGLTNLLDVPGLNGLSDTIILDIISNYLVLPNRITVPLVSEVQIAQLRFPVPKGVLRIHFIEAQDLQGKDTYLKGLVKGKSDPYGIIRVGNQIFQSRVIKENLSPKWNEVYEALVYEHPGQELEIELFDEDPDKDDFLGSLMIDLIEVEKERLLDEWFTLDEVPKGKLHLRLEWLTLMPNASNLDKVLTDIKADKDQANDGLSSALLILYLDSARNLPSGKKISSNPNPVVQMSVGHKAQESKIRYKTNEPVWEENFTFFIHNPKRQDLEVEVRDEQHQCSLGNLKVPLSQLLTSEDMTVSQRFQLSNSGPNSTIKMKIALRVLHLEKRER
stoichiometry N: 2
